Assay results taken from patent US20190338009A1 (ZEALAND PHARMA A S, published 2019).
Square brackets hold non-standard residues; d marks the D form. Aib = CC(C)(N)C(=O)O

Assays:
[1] = target: human glucagon-like peptide 1 receptor (GLP-1R) (human, UniProt P43220 24-463); experiment: cell-based or functional assay
[2] = target: T1, human GLP-2 receptor (hGLP2-R) (human, UniProt O95838 1-553); experiment: cell-based or functional assay
T1 sequence (looked up): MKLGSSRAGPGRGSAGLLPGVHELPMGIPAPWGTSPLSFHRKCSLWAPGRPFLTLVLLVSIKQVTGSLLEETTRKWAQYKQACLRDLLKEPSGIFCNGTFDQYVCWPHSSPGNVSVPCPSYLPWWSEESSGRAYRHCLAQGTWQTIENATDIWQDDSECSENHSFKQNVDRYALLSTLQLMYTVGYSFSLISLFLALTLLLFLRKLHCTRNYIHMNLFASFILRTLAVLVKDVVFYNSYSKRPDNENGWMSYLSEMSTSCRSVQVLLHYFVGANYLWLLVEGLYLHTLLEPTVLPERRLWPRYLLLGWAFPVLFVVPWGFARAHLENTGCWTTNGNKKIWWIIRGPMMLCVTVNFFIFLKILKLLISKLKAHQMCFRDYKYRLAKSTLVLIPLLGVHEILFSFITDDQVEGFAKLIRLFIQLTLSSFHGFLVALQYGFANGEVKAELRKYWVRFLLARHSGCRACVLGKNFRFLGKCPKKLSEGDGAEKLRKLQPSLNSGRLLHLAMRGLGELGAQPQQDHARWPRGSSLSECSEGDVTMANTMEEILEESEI

B1: Compound 16 (peptide)
peptide: H-H[Aib]EGTFTSELATILDEQAARDFIAWLIKHKITD-OH
SMILES: CC[C@H](C)[C@H](NC(=O)[C@H](Cc1ccccc1)NC(=O)[C@H](CC(=O)O)NC(=O)[C@H](CCCNC(=N)N)NC(=O)[C@H](C)NC(=O)[C@H](C)NC(=O)[C@H](CCC(N)=O)NC(=O)[C@H](CCC(=O)O)NC(=O)[C@H](CC(=O)O)NC(=O)[C@H](CC(C)C)NC(=O)[C@@H](NC(=O)[C@@H](NC(=O)[C@H](C)NC(=O)[C@H](CC(C)C)NC(=O)[C@H](CCC(=O)O)NC(=O)[C@H](CO)NC(=O)[C@@H](NC(=O)[C@H](Cc1ccccc1)NC(=O)[C@@H](NC(=O)CNC(=O)[C@H](CCC(=O)O)NC(=O)C(C)(C)NC(=O)[C@@H](N)Cc1c[nH]cn1)[C@@H](C)O)[C@@H](C)O)[C@@H](C)O)[C@@H](C)CC)C(=O)N[C@@H](C)C(=O)N[C@@H](Cc1c[nH]c2ccccc12)C(=O)N[C@@H](CC(C)C)C(=O)N[C@H](C(=O)N[C@@H](CCCCN)C(=O)N[C@@H](Cc1c[nH]cn1)C(=O)N[C@@H](CCCCN)C(=O)N[C@H](C(=O)N[C@H](C(=O)N[C@@H](CC(=O)O)C(=O)O)[C@@H](C)O)[C@@H](C)CC)[C@@H](C)CC
B1 was tested, and the “EC50 GLP-1 (nM); cAMP AlphaScreen, HEK293 cells expressing human GLP-1R” value (“EC50 GLP-1 (nM); cAMP AlphaScreen” below) [1] was 0.006 nM and the “EC50 GLP-2 (nM); cAMP AlphaScreen, HEK293 cells expressing human GLP-2R” value (“EC50 GLP-2 (nM); cAMP AlphaScreen” for short) [2] was 0.026 nM.

B2: Compound 12 (peptide)
peptide: H-H[Aib]EGTFTSELATILDEQAARDFIAWLHAHKITD-OH
SMILES: CC[C@H](C)[C@H](NC(=O)[C@H](Cc1ccccc1)NC(=O)[C@H](CC(=O)O)NC(=O)[C@H](CCCNC(=N)N)NC(=O)[C@H](C)NC(=O)[C@H](C)NC(=O)[C@H](CCC(N)=O)NC(=O)[C@H](CCC(=O)O)NC(=O)[C@H](CC(=O)O)NC(=O)[C@H](CC(C)C)NC(=O)[C@@H](NC(=O)[C@@H](NC(=O)[C@H](C)NC(=O)[C@H](CC(C)C)NC(=O)[C@H](CCC(=O)O)NC(=O)[C@H](CO)NC(=O)[C@@H](NC(=O)[C@H](Cc1ccccc1)NC(=O)[C@@H](NC(=O)CNC(=O)[C@H](CCC(=O)O)NC(=O)C(C)(C)NC(=O)[C@@H](N)Cc1c[nH]cn1)[C@@H](C)O)[C@@H](C)O)[C@@H](C)O)[C@@H](C)CC)C(=O)N[C@@H](C)C(=O)N[C@@H](Cc1c[nH]c2ccccc12)C(=O)N[C@@H](CC(C)C)C(=O)N[C@@H](Cc1c[nH]cn1)C(=O)N[C@@H](C)C(=O)N[C@@H](Cc1c[nH]cn1)C(=O)N[C@@H](CCCCN)C(=O)N[C@H](C(=O)N[C@H](C(=O)N[C@@H](CC(=O)O)C(=O)O)[C@@H](C)O)[C@@H](C)CC
B2 was tested, and the “EC50 GLP-1 (nM); cAMP AlphaScreen” value [1] was 0.055 nM and the “EC50 GLP-2 (nM); cAMP AlphaScreen” value [2] was 0.076 nM.

B3: Compound 14 (peptide)
peptide: H-H[Aib]EGTFTSELATILDEQAARDFIAWLYAHKITD-OH
SMILES: CC[C@H](C)[C@H](NC(=O)[C@H](Cc1ccccc1)NC(=O)[C@H](CC(=O)O)NC(=O)[C@H](CCCNC(=N)N)NC(=O)[C@H](C)NC(=O)[C@H](C)NC(=O)[C@H](CCC(N)=O)NC(=O)[C@H](CCC(=O)O)NC(=O)[C@H](CC(=O)O)NC(=O)[C@H](CC(C)C)NC(=O)[C@@H](NC(=O)[C@@H](NC(=O)[C@H](C)NC(=O)[C@H](CC(C)C)NC(=O)[C@H](CCC(=O)O)NC(=O)[C@H](CO)NC(=O)[C@@H](NC(=O)[C@H](Cc1ccccc1)NC(=O)[C@@H](NC(=O)CNC(=O)[C@H](CCC(=O)O)NC(=O)C(C)(C)NC(=O)[C@@H](N)Cc1c[nH]cn1)[C@@H](C)O)[C@@H](C)O)[C@@H](C)O)[C@@H](C)CC)C(=O)N[C@@H](C)C(=O)N[C@@H](Cc1c[nH]c2ccccc12)C(=O)N[C@@H](CC(C)C)C(=O)N[C@@H](Cc1ccc(O)cc1)C(=O)N[C@@H](C)C(=O)N[C@@H](Cc1c[nH]cn1)C(=O)N[C@@H](CCCCN)C(=O)N[C@H](C(=O)N[C@H](C(=O)N[C@@H](CC(=O)O)C(=O)O)[C@@H](C)O)[C@@H](C)CC
For B3, the “EC50 GLP-1 (nM); cAMP AlphaScreen” value [1] was 0.021 nM and the “EC50 GLP-2 (nM); cAMP AlphaScreen” value [2] was 0.049 nM.

B4: Compound 13 (peptide)
peptide: H-H[Aib]EGTFTSELATILDEQAARDFIAWLQAHKITD-OH
SMILES: CC[C@H](C)[C@H](NC(=O)[C@H](Cc1ccccc1)NC(=O)[C@H](CC(=O)O)NC(=O)[C@H](CCCNC(=N)N)NC(=O)[C@H](C)NC(=O)[C@H](C)NC(=O)[C@H](CCC(N)=O)NC(=O)[C@H](CCC(=O)O)NC(=O)[C@H](CC(=O)O)NC(=O)[C@H](CC(C)C)NC(=O)[C@@H](NC(=O)[C@@H](NC(=O)[C@H](C)NC(=O)[C@H](CC(C)C)NC(=O)[C@H](CCC(=O)O)NC(=O)[C@H](CO)NC(=O)[C@@H](NC(=O)[C@H](Cc1ccccc1)NC(=O)[C@@H](NC(=O)CNC(=O)[C@H](CCC(=O)O)NC(=O)C(C)(C)NC(=O)[C@@H](N)Cc1c[nH]cn1)[C@@H](C)O)[C@@H](C)O)[C@@H](C)O)[C@@H](C)CC)C(=O)N[C@@H](C)C(=O)N[C@@H](Cc1c[nH]c2ccccc12)C(=O)N[C@@H](CC(C)C)C(=O)N[C@@H](CCC(N)=O)C(=O)N[C@@H](C)C(=O)N[C@@H](Cc1c[nH]cn1)C(=O)N[C@@H](CCCCN)C(=O)N[C@H](C(=O)N[C@H](C(=O)N[C@@H](CC(=O)O)C(=O)O)[C@@H](C)O)[C@@H](C)CC
In the case of B4, the “EC50 GLP-1 (nM); cAMP AlphaScreen” value [1] is reported as 0.016 nM and the “EC50 GLP-2 (nM); cAMP AlphaScreen” value [2] is reported as 0.083 nM.

B5: Compound 10 (peptide)
peptide: H-H[Aib]EGTFTSELSTILDEQAARDFIAWLIAHKITD-OH
SMILES: CC[C@H](C)[C@H](NC(=O)[C@H](CC(C)C)NC(=O)[C@H](Cc1c[nH]c2ccccc12)NC(=O)[C@H](C)NC(=O)[C@@H](NC(=O)[C@H](Cc1ccccc1)NC(=O)[C@H](CC(=O)O)NC(=O)[C@H](CCCNC(=N)N)NC(=O)[C@H](C)NC(=O)[C@H](C)NC(=O)[C@H](CCC(N)=O)NC(=O)[C@H](CCC(=O)O)NC(=O)[C@H](CC(=O)O)NC(=O)[C@H](CC(C)C)NC(=O)[C@@H](NC(=O)[C@@H](NC(=O)[C@H](CO)NC(=O)[C@H](CC(C)C)NC(=O)[C@H](CCC(=O)O)NC(=O)[C@H](CO)NC(=O)[C@@H](NC(=O)[C@H](Cc1ccccc1)NC(=O)[C@@H](NC(=O)CNC(=O)[C@H](CCC(=O)O)NC(=O)C(C)(C)NC(=O)[C@@H](N)Cc1c[nH]cn1)[C@@H](C)O)[C@@H](C)O)[C@@H](C)O)[C@@H](C)CC)[C@@H](C)CC)C(=O)N[C@@H](C)C(=O)N[C@@H](Cc1c[nH]cn1)C(=O)N[C@@H](CCCCN)C(=O)N[C@H](C(=O)N[C@H](C(=O)N[C@@H](CC(=O)O)C(=O)O)[C@@H](C)O)[C@@H](C)CC
B5 was tested, and the “EC50 GLP-1 (nM); cAMP AlphaScreen” value [1] was 0.005 nM and the “EC50 GLP-2 (nM); cAMP AlphaScreen” value [2] was 0.05 nM.

B6: Compound 15 (peptide)
peptide: H-H[Aib]EGTFTSELATILDEQAARDFIAWLIQHKITD-OH
SMILES: CC[C@H](C)[C@H](NC(=O)[C@H](Cc1ccccc1)NC(=O)[C@H](CC(=O)O)NC(=O)[C@H](CCCNC(=N)N)NC(=O)[C@H](C)NC(=O)[C@H](C)NC(=O)[C@H](CCC(N)=O)NC(=O)[C@H](CCC(=O)O)NC(=O)[C@H](CC(=O)O)NC(=O)[C@H](CC(C)C)NC(=O)[C@@H](NC(=O)[C@@H](NC(=O)[C@H](C)NC(=O)[C@H](CC(C)C)NC(=O)[C@H](CCC(=O)O)NC(=O)[C@H](CO)NC(=O)[C@@H](NC(=O)[C@H](Cc1ccccc1)NC(=O)[C@@H](NC(=O)CNC(=O)[C@H](CCC(=O)O)NC(=O)C(C)(C)NC(=O)[C@@H](N)Cc1c[nH]cn1)[C@@H](C)O)[C@@H](C)O)[C@@H](C)O)[C@@H](C)CC)C(=O)N[C@@H](C)C(=O)N[C@@H](Cc1c[nH]c2ccccc12)C(=O)N[C@@H](CC(C)C)C(=O)N[C@H](C(=O)N[C@@H](CCC(N)=O)C(=O)N[C@@H](Cc1c[nH]cn1)C(=O)N[C@@H](CCCCN)C(=O)N[C@H](C(=O)N[C@H](C(=O)N[C@@H](CC(=O)O)C(=O)O)[C@@H](C)O)[C@@H](C)CC)[C@@H](C)CC
In the case of B6, the “EC50 GLP-1 (nM); cAMP AlphaScreen” value [1] is reported as 0.005 nM and the “EC50 GLP-2 (nM); cAMP AlphaScreen” value [2] is reported as 0.038 nM.

B7: Compound 11 (peptide)
peptide: H-H[Aib]EGTFTSELATILDGKAARDFIAWLIAHKITD-OH
SMILES: CC[C@H](C)[C@H](NC(=O)[C@H](CC(C)C)NC(=O)[C@H](Cc1c[nH]c2ccccc12)NC(=O)[C@H](C)NC(=O)[C@@H](NC(=O)[C@H](Cc1ccccc1)NC(=O)[C@H](CC(=O)O)NC(=O)[C@H](CCCNC(=N)N)NC(=O)[C@H](C)NC(=O)[C@H](C)NC(=O)[C@H](CCCCN)NC(=O)CNC(=O)[C@H](CC(=O)O)NC(=O)[C@H](CC(C)C)NC(=O)[C@@H](NC(=O)[C@@H](NC(=O)[C@H](C)NC(=O)[C@H](CC(C)C)NC(=O)[C@H](CCC(=O)O)NC(=O)[C@H](CO)NC(=O)[C@@H](NC(=O)[C@H](Cc1ccccc1)NC(=O)[C@@H](NC(=O)CNC(=O)[C@H](CCC(=O)O)NC(=O)C(C)(C)NC(=O)[C@@H](N)Cc1c[nH]cn1)[C@@H](C)O)[C@@H](C)O)[C@@H](C)O)[C@@H](C)CC)[C@@H](C)CC)C(=O)N[C@@H](C)C(=O)N[C@@H](Cc1c[nH]cn1)C(=O)N[C@@H](CCCCN)C(=O)N[C@H](C(=O)N[C@H](C(=O)N[C@@H](CC(=O)O)C(=O)O)[C@@H](C)O)[C@@H](C)CC
B7 was tested, and the “EC50 GLP-1 (nM); cAMP AlphaScreen” value [1] was 0.011 nM and the “EC50 GLP-2 (nM); cAMP AlphaScreen” value [2] was 0.085 nM.
